Test results taken from US20240197828A1, “Chimeric molecule to treat sepsis and other inflammatory conditions” (THE FEINSTEIN INSTITUTES FOR MEDICAL RESEARCH, priority 2022, published 2024).

Target: T1, rmCIRP (Mus musculus, UniProt P60824)
T1 construct: purchased Cubasio Technology LLC CSB-EP613483He0
T1 sequence (P60824 1-172): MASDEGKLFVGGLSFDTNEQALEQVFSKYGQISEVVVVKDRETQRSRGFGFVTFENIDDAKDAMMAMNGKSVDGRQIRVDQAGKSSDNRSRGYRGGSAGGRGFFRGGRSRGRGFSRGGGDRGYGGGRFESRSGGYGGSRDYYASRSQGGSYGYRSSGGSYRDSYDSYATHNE
Test: Surface plasmon resonance (Biacore/OpenSPR) binding to rmCIRP
Parameters: species or system murine
Conditions: rmCIRP immobilized, rmMFG-E8 analyte 15.7 to 250 nM, DPBS with Ca/Mg, 1% BSA, pH 7.4; read-out: equilibrium dissociation KD between rmCIRP and rmMFG-E8
From the text: Computational modeling was used to determine the likely domain of MFG-E8's binding to eCIRP. The known amino acid (AA) sequence of this domain was used to develop and test potential therapeutic peptides. An MFG-E8 derived oligopeptide, MOP3, was developed based on 15 AA from MFG-E8 discoidin 2 domain (mimicking MFG-E8's C-terminal) and tagged with the 3 AA, RGD, (mimicking MFG-E8's binding capacity for the integrin receptor at the N-terminal). Binding of MOP3 to CIRP was quantified using Surface Plasmon Resonance (SPR) analysis. Macrophages (RAW264.7 cells) were treated with FITC-recombinant mouse (rm)-CIRP or co-incubated MOP3 and FITC-rmCIRP with and without a. Br-integrin Ab. After 1 h, cells were fixed and analyzed for intracellular FITC-rmCIRP by flow cytometry. Macrophages were stimulated with rmCIRP or co-incubated mixture of MOP3 and rmCIRP. After 4 h, cell culture supernatants were analyzed for inflammatory cytokine, TNFα. […]
To examine the direct interaction between rmCIRP and rmMFG-E8, surface plasmon resonance (SPR), OpenSPR (Nicoya), was performed between rmCIRP and rmMFG-E8. rmCIRP was immobilized on carboxyl sensor and rmMFG-E8 was injected as an analyte in concentrations of 15.7 nM to 250 nM. […] To evaluate binding, the analyte was injected into flow cell-1 and flow cell-2 and increasing concentrations and real-time interaction data were analyzed by TraceDrawer (Nicoya). […]

B1: milk fat globule-epidermal growth factor—factor VIII (protein, listed as Mus musculus)
chain: MQVSRVLAALCGMLLCASGLFAASGDFCDSSLCLNGGTCLTGQDNDIYCLCPEGFTGLVCNETERGPCSPNPCYNDAKCLVTLDTQRGDIFTEYICQCPVGYSGIHCETETNYYNLDGEYMFTTAVPNTAVPTPAPTPDLSNNLASRCSTQLGMEGGAIADSQISASSVYMGFMGLQRWGPELARLYRTGIVNAWTASNYDSKPWIQVNLLRKMRVSGVMTQGASRAGRAEYLKTFKVAYSLDGRKFEFIQDESGGDKEFLGNLDNNSLKVNMFNPTLEAQYIKLYPVSCHRGCTLRFELLGCELHGCSEPLGLKNNTIPDSQMSASSSYKTWNLRAFGWYPHLGRLDNQGKINAWTAQSNSAKEWLQVDLGTQRQVTGIITQGARDFGHIQYVASYKVAHSDDGVQWTVYEEQGSSKVFQGNLDNNSHKKNIFEKPFMARYVRVLPVSWHNRITLRLELLGC
Kd: 0.2 µM
